Columns and labels:
Assay in all cases: SPR, ligand directly immobilised, soluble Fcγ receptor as analyte, pH 7.3
[1] = molecular target: human FcγRIIIA (CD16a) (human) (UniProt P08637)
[2] = molecular target: human FcγRI (CD64) (human) (UniProt P12314)
[3] = molecular target: human FcγRIIB (CD32B) (human) (UniProt P31994)
human FcγRIIB (CD32B) (human), sequence (P31994 43-217): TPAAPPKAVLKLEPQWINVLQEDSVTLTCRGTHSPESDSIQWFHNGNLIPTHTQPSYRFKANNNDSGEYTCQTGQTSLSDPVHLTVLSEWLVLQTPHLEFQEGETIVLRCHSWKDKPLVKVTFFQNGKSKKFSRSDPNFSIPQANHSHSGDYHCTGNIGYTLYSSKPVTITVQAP

human FcγRIIIA (CD16a) (human), sequence (P08637 17-208): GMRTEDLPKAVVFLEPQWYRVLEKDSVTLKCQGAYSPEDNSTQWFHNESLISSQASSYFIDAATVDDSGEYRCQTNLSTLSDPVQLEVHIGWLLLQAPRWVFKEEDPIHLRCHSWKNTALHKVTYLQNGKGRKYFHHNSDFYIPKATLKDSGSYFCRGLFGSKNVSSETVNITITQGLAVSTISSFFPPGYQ
human FcγRI (CD64) (human), sequence (P12314 16-292): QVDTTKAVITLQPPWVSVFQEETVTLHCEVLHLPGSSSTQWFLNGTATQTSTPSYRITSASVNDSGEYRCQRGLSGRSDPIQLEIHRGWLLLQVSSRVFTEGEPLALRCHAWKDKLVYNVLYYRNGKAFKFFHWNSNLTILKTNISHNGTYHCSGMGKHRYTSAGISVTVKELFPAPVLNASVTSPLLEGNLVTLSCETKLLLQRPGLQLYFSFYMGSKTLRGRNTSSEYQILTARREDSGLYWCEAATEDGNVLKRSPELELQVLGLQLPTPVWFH

- Kd [1]: 4.5 µM
- Kd [2]: 0.000345 µM
- Kd [3]: 5.8 µM
Substance: huIgG1 (antibody)

Source: US20260209357A1
